Data published in patent US8268575B2, “NAD biosynthesis systems” (Washington University, priority 2004, dated 2012).

Substrate: NC(=O)c1cccnc1
Test: purified protein, by the assay type
Details: other: substrate of Nampt, 37° C., pH 7.5

B1: purified recombinant mouse Nampt (Mus musculus) (protein)
chain: MNAAAEAEFNILLATDSYKVTHYKQYPPNTSKVYSYFECREKKTENSKVRKVKYEETVFYGLQYILNKYLKGKVVTKEKIQEAKEVYREHFQDDVFNERGWNYILEKYDGHLPIEVKAVPEGSVIPRGNVLFTVENTDPECYWLTNWIETILVQSWYPITVATNSREQKKILAKYLLETSGNLDGLEYKLHDFGYRGVSSQETAGIGASAHLVNFKGTDTVAGIALIKKYYGTKDPVPGYSVPAAEHSTITAWGKDHEKDAFEHIVTQFSSVPVSVVSDSYDIYNACEKIWGEDLRHLIVSRSTEAPLIIRPDSGNPLDTVLKVLDILGKKFPVTENSKGYKLLPPYLRVIQGDGVDINTLQEIVEGMKQKKWSIENVSFGSGGALLQKLTRDLLNCSFKCSYVVTNGLGVNVFKDPVADPNKRSKKGRLSLHRTPAGNFVTLEEGKGDLEEYGHDLLHTVFKNGKVTKSYSFDEVRKNAQLNIEQDVAPH
  Km: 0.92 µM
